Test results taken from patent US20140241984A1.
Positions count from the first letter of the chain named.

B1: Syn-F1 (antibody, V domains shown)
VH: DVQLVESGGDLVQPGGSRKLSCAASGFTFSSFGMHWVRQAPEKGLEWVAYINSGSSTIYYADTVKGRFTISRDNPKNTLFLQMTSLRSEDTAMYYCARGNNPGTGYYYSMDYWGQGTSVTVSS
VL: not shown
B2: Syn-F2 (antibody, IgG2a, V domains shown)
VH: B1 VH with D10G, N52S, S109A
VL: not shown
B3: Syn-O1 (antibody, IgG2b, V domains shown)
VH: EVQLVESGGGLVQPKGSLKLSCAASGFTFNTYAMHWVRQAPGKGLEWVARIRSKSSNYATYYADSVKDRFTISRDDSQSMLYLQMNNLKTEDTAMYYCVRPLKWYFDVWGTGTTVTVSS
VL: QIVLTQSPAILSASPGEKVTMTCSASSTVNYMHWYQQKSGTSPKIWIYDTSKLASGVPARFSGSGSWTSYSLTISSMEAEDAATYYCQQWNSNPPTFGAGTKLELK
B4: Syn-O2 (antibody, IgG1, V domains shown)
VH: B3 VH
VL: B3 VL
B5: Syn-O4 (antibody, IgG1, V domains shown)
VH: B3 VH
VL: B3 VL
B6: Syn-O3 (antibody, IgG1, V domains shown)
VH: B3 VH
VL: B3 VL

Target: α-synuclein fibrils (human), P37840
Test: inhibition ELISA; fibrils against monomers
Details: remark: other sources report otherwise

| Fold Affinity to Fibrils [fold] | Binder |
| --- | --- |
| 16600 | B1 |
| 3140 | B2 |
| 12700 | B3 |
| 27300 | B4 |
| 6930 | B5 |
| 11100 | B6 |

Target: α-synuclein fibrils (human), P37840
Test: SPR, BIAcore X100; fibrils immobilised on CM5, mAb injected at 0.01-10 nM
Details: remark: other sources report otherwise

| Kd [nM] | koff [s⁻¹] | kon [M⁻¹ s⁻¹] | Binder |
| --- | --- | --- | --- |
| 0.127 | 0.00156 | 1.23e+07 | B1 |
| 2.69 | 0.00338 | 1.26e+06 | B2 |
| 0.016 | 9.36e-05 | 5.86e+06 | B3 |
| 0.0969 | 0.00127 | 1.31e+07 | B4 |
| 0.138 | 0.000996 | 7.24e+06 | B5 |
| 0.171 | 0.000379 | 2.22e+06 | B6 |
